According to patent CN111171150A (BEIJING ZHIREN MEIBO BIOTECHNOLOGY CO LTD, dated 2020):

Assays:
[1] = target: T1, hTSLP1-m-His (human (homo sapiens), UniProt Q969D9 29-159); assay: SPR (Biacore X100) as in Example 3.1, antibody captured, hTSLP as analyte
T1 construct: Long version of the human TSLP extracellular region, furin site deleted, His tag at the C-terminus, made in HEK293; also called hTSLP-m-his; not shown: C-terminal His tag

[2] = target: T1, hTSLP1-m-His; assay: SPR (Biacore X100), antibody captured by anti-human IgG (Fc) on CM5, hTSLP1-m-his as analyte, 25 C, 1:1 fit
[3] = target: T2, mfTSLP (cynomolgus monkey (Macaca fascicularis)); assay: SPR (Biacore X100) as in Example 3.1, antibody captured, mfTSLP as analyte
T2 construct: also called 猴TSLP; 食蟹猴TSLP
T2 chain: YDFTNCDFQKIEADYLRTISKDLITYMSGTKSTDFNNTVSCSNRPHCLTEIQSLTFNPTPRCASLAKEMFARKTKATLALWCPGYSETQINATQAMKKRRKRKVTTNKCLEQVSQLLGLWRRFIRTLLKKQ

[4] = target: T3, hTSLP1-m-mFc (human (homo sapiens)); mouse (mus …, limits assumed); assay: ELISA on coated hTSLP1-m-mFc (1 μg/mL), HRP anti-human IgG
T3 construct: also called 人TSLP
T3 chain: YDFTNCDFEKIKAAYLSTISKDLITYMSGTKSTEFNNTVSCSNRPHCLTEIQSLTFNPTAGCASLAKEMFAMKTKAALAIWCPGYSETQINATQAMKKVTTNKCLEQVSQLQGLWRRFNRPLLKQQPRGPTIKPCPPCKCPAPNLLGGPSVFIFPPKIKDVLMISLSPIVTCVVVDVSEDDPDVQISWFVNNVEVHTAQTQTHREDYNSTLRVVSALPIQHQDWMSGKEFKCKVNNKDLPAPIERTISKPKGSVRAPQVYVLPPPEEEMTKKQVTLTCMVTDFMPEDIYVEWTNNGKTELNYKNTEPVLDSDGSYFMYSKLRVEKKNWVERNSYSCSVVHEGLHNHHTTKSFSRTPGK

[5] = target: T4, mfTSLP1-m-mFc (cynomolgus monkey (Macaca …)); assay: ELISA on coated mfTSLP1-m-mFc (1 μg/mL), HRP anti-human IgG
T4 construct: also called 食蟹猴TSLP
T4 chain: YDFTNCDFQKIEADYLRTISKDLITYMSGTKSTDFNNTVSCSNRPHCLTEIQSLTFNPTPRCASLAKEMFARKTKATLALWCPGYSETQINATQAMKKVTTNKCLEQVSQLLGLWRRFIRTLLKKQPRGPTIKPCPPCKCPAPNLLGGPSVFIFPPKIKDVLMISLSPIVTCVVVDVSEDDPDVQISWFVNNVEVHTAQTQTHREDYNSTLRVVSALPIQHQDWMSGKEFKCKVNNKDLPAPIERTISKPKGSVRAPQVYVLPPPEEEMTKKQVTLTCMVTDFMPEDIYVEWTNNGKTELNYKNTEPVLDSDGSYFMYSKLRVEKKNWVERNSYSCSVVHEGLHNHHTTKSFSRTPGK

[6] = target: T5, mTSLP-mFc (mouse (mus musculus)); assay: ELISA on coated mTSLP-mFc (1 μg/mL), HRP anti-human IgG
T5 construct: also called 小鼠TSLP
T5 chain: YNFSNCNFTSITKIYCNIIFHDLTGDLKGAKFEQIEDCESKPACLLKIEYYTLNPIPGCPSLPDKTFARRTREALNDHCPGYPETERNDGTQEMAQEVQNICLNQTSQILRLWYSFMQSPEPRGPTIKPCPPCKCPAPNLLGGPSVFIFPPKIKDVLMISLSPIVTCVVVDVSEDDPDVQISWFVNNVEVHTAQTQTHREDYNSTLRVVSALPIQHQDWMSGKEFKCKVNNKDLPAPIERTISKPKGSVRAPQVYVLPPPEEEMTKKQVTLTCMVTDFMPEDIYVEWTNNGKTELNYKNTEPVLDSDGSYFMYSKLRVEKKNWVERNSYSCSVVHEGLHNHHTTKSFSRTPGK

[7] = target: T1, hTSLP1-m-His; assay: competition ELISA on coated hTSLP1-m-his; competitor Tezepelumab-mIgG2a; HRP anti-human IgG

| Binder | Kd [3] | binding result [4] | binding result [5] | binding result [6] | binding result [7] | further results |
| --- | --- | --- | --- | --- | --- | --- |
| S2B1-IgG4 (antibody, V domains shown) VH: EVKLQQSGAELVRPGSSVKISCKASGYAFSNYWMNWVKQRPGQGLEWIGQIFPGDGDTDYNGKFKGKATLTADKSSSTAYMQLSSLTSEDSAVYFCARAGYYRGYYAMDYWGQGTSVTVSA VL: EIVLTQSPALMAASPGEKVTITCSVSSSISSSNLHWYQQKSETSPKPWIYGTSNLASGVPVRFSGSGSGTSYSLTISSMEAEDAATYYCQQWSSYPLTFGAGTKLEIK | – | – | – | – | – | Kd [1]: 0.012 nM; Kd [2]: 0.0092 nM |
| Tezepelumab (antibody, V domains shown, also called AMG 157; MEDI9929) VH: QMQLVESGGGVVQPGRSLRLSCAASGFTFRTYGMHWVRQAPGKGLEWVAVIWYDGSNKHYADSVKGRFTITRDNSKNTLNLQMNSLRAEDTAVYYCARAPQWELVHEAFDIWGQGTMVTVSS VL: SYVLTQPPSVSVAPGQTARITCGGNNLGSKSVHWYQQKPGQAPVLVVYDDSDRPSWIPERFSGSNSGNTATLTISRGEAGDEADYYCQVWDSSSDHVVFGGGTKLTVL | 0.00816 nM | – | – | – | – | – |
| H1A10+L3E8-M1 (antibody, human IgG4, V domains shown, also called L3E8人源化突变体; 人源化抗TSLP单克隆抗体) VH: QVQLVQSGAEVKKPGASVKVSCKASGYAFSNYWMNWVRQAPGQGLEWMGQIFPGDSDTDYDQKFQGRVTMTRDTSTSTVYMELSSLRSEDTAVYYCARAGYYRGYYAMDYWGQGTTVTVSS VL: EIVMTQSPATLSVSPGERATLSCSVSSSISSSNLHWYQQKPGQAPRPWIYGTSNLASGIPARFSGSGSGTEFTLTISSLQSEDFAVYYCQQWSSYPLTFGQGTKLEIK | 2.66 nM | binds | binds | no binding | – | – |
| H1A10+L3E8 (antibody, V domains shown) VH: QVQLVQSGAEVKKPGASVKVSCKASGYAFSNYWMNWVRQAPGQGLEWMGQIFPGDSDTDYDQKFQGRVTMTRDTSTSTVYMELSSLRSEDTAVYYCARAGYYRGYYAMDYWGQGTTVTVSS VL: EIVMTQSPATLSVSPGERATITCSVSSSISSSNLHWYQQKPGQAPKPWIYGTSNLASGIPARFSGSGSGTEFSLTISSVEAEDAAVYYCQQWSSYPLTFGQGTKLEIK | – | binds | binds | no binding | – | – |
| H1A10+L3E8-M2 (antibody, IgG4, V domains shown, also called L3E8人源化突变体) VH: QVQLVQSGAEVKKPGASVKVSCKASGYAFSNYWMNWVRQAPGQGLEWMGQIFPGDSDTDYDQKFQGRVTMTRDTSTSTVYMELSSLRSEDTAVYYCARAGYYRGYYAMDYWGQGTTVTVSS VL: EIVMTQSPATLSVSPGERATLSCSVSSSISSSNLHWYQQKPGQAPKPWIYGTSNLASGIPARFSGSGSGTEFTLTISSLQSEDFAVYYCQQWSSYPLTFGQGTKLEIK | 2.59 nM | binds | binds | no binding | – | – |
| H1A10+L3E8-M3 (antibody, IgG4, V domains shown, also called L3E8人源化突变体) VH: QVQLVQSGAEVKKPGASVKVSCKASGYAFSNYWMNWVRQAPGQGLEWMGQIFPGDSDTDYDQKFQGRVTMTRDTSTSTVYMELSSLRSEDTAVYYCARAGYYRGYYAMDYWGQGTTVTVSS VL: EIVMTQSPATLSVSPGERATITCSVSSSISSSNLHWYQQKPGQAPRPWIYGTSNLASGIPARFSGSGSGTEFTLTISSLQSEDFAVYYCQQWSSYPLTFGQGTKLEIK | 2.37 nM | binds | binds | no binding | – | – |
| H1A10+L3E8-M4 (antibody, IgG4, V domains shown, also called L3E8人源化突变体) VH: QVQLVQSGAEVKKPGASVKVSCKASGYAFSNYWMNWVRQAPGQGLEWMGQIFPGDSDTDYDQKFQGRVTMTRDTSTSTVYMELSSLRSEDTAVYYCARAGYYRGYYAMDYWGQGTTVTVSS VL: EIVMTQSPATLSVSPGERATLSCSVSSSISSSNLHWYQQKPGQAPRPWIYGTSNLASGIPARFSGSGSGTEFTLTISSMEAEDFAVYYCQQWSSYPLTFGQGTKLEIK | 2.63 nM | binds | binds | no binding | – | – |
| H1A10+L3E8-M1-IgG1m3 (antibody, V domains shown, IgG1m3 version; also called L3E8人源化突变体(IgG1m3版本)) VH: QVQLVQSGAEVKKPGASVKVSCKASGYAFSNYWMNWVRQAPGQGLEWMGQIFPGDSDTDYDQKFQGRVTMTRDTSTSTVYMELSSLRSEDTAVYYCARAGYYRGYYAMDYWGQGTTVTVSS VL: EIVMTQSPATLSVSPGERATLSCSVSSSISSSNLHWYQQKPGQAPRPWIYGTSNLASGIPARFSGSGSGTEFTLTISSLQSEDFAVYYCQQWSSYPLTFGQGTKLEIK | – | – | – | – | binds | – |
| H1A10+L3E8-M2-IgG1m3 (antibody, V domains shown, IgG1m3 version; also called L3E8人源化突变体(IgG1m3版本)) VH: QVQLVQSGAEVKKPGASVKVSCKASGYAFSNYWMNWVRQAPGQGLEWMGQIFPGDSDTDYDQKFQGRVTMTRDTSTSTVYMELSSLRSEDTAVYYCARAGYYRGYYAMDYWGQGTTVTVSS VL: EIVMTQSPATLSVSPGERATLSCSVSSSISSSNLHWYQQKPGQAPKPWIYGTSNLASGIPARFSGSGSGTEFTLTISSLQSEDFAVYYCQQWSSYPLTFGQGTKLEIK | – | – | – | – | binds | – |
| H1A10+L3E8-M3-IgG1m3 (antibody, V domains shown, IgG1m3 version; also called L3E8人源化突变体(IgG1m3版本)) VH: QVQLVQSGAEVKKPGASVKVSCKASGYAFSNYWMNWVRQAPGQGLEWMGQIFPGDSDTDYDQKFQGRVTMTRDTSTSTVYMELSSLRSEDTAVYYCARAGYYRGYYAMDYWGQGTTVTVSS VL: EIVMTQSPATLSVSPGERATITCSVSSSISSSNLHWYQQKPGQAPRPWIYGTSNLASGIPARFSGSGSGTEFTLTISSLQSEDFAVYYCQQWSSYPLTFGQGTKLEIK | – | – | – | – | binds | – |
| H1A10+L3E8-M4-IgG1m3 (antibody, V domains shown, IgG1m3 version; also called L3E8人源化突变体(IgG1m3版本)) VH: QVQLVQSGAEVKKPGASVKVSCKASGYAFSNYWMNWVRQAPGQGLEWMGQIFPGDSDTDYDQKFQGRVTMTRDTSTSTVYMELSSLRSEDTAVYYCARAGYYRGYYAMDYWGQGTTVTVSS VL: EIVMTQSPATLSVSPGERATLSCSVSSSISSSNLHWYQQKPGQAPRPWIYGTSNLASGIPARFSGSGSGTEFTLTISSMEAEDFAVYYCQQWSSYPLTFGQGTKLEIK | – | – | – | – | binds | – |
